# What was measured:
# [1] = target: recombinant human VEGF165 (human, UniProt P15692 207-395); assay: cell-based or functional assay
# [2] = target: recombinant human PDGF-BB (human, UniProt P01127 82-190); assay: cell-based or functional assay
# recombinant human PDGF-BB, sequence (P01127 82-190 limits assumed): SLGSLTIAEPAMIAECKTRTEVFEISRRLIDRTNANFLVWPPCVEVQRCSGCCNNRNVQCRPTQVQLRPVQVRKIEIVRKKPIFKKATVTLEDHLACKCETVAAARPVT
# recombinant human VEGF165, sequence (P15692 other isoform, or with tags, fused parts or gaps limits assumed): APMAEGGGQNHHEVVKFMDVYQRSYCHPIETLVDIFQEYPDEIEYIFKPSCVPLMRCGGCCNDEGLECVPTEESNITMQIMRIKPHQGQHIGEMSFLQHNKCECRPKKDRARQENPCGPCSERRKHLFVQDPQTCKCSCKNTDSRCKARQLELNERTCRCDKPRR
Potency IC50 (nM) HMVEC-d hVEGF165 [1] [nM],Potency IC50 (nM) NIH-3T3 hPDGF-BB [2] [nM],Binder
0.086,0.074,"AB014-GS10-9E8.4 VK-VH (bispecific antibody, human IgG1, kappa, L234A L235A) heavy: EVQLVESGGGLVQPGGSLRLSCAASGYTFTNYGMNWVRQAPGKGLEWVGWINTYTGEPTYAADFKRRFTFSLDTSKSTAYLQMNSLRAEDTAVYYCAKYPHYYGSSHWYFDVWGQGTLVTVSSASTKGPSVFPLAPSSKSTSGGTAALGCLVKDYFPEPVTVSWNSGALTSGVHTFPAVLQSSGLYSLSSVVTVPSSSLGTQTYICNVNHKPSNTKVDKKVEPKSCDKTHTCPPCPAPEAAGGPSVFLFPPKPKDTLMISRTPEVTCVVVDVSHEDPEVKFNWYVDGVEVHNAKTKPREEQYNSTYRVVSVLTVLHQDWLNGKEYKCKVSNKALPAPIEKTISKAKGQPREPQVYTLPPSREEMTKNQVSLTCLVKGFYPSDIAVEWESNGQPENNYKTTPPVLDSDGSFFLYSKLTVDKSRWQQGNVFSCSVMHEALHNAYTQKSLSLSPGKGGSGGGGSGGEIVLTQSPGTLSLSPGERATLSCERSSGDIGDSYVSWYQQKPGQAPRLVIYADDQRPSGIPDRFSGSGSGTDFTLTISRLEPEDFAVYYCQSYDINIDIVFGGGTKVEIKGGGGSGGGGSGGGGSEVTLRESGPALVKPTQTLTLTCTFSGFSLSTYGMGVGWIRQPPGKALEWLANIWWDDDKYYNPSLKNRLTISKDTSKNQVVLTMTNMDPVDTATYYCARIESIGTTYSFDYWGQGTMVTVSS light: not shown"
0.13,0.066,"AB014-GS15-9E8.4 VH-VK (bispecific antibody, human IgG1, kappa, L234A L235A) heavy: EVQLVESGGGLVQPGGSLRLSCAASGYTFTNYGMNWVRQAPGKGLEWVGWINTYTGEPTYAADFKRRFTFSLDTSKSTAYLQMNSLRAEDTAVYYCAKYPHYYGSSHWYFDVWGQGTLVTVSSASTKGPSVFPLAPSSKSTSGGTAALGCLVKDYFPEPVTVSWNSGALTSGVHTFPAVLQSSGLYSLSSVVTVPSSSLGTQTYICNVNHKPSNTKVDKKVEPKSCDKTHTCPPCPAPEAAGGPSVFLFPPKPKDTLMISRTPEVTCVVVDVSHEDPEVKFNWYVDGVEVHNAKTKPREEQYNSTYRVVSVLTVLHQDWLNGKEYKCKVSNKALPAPIEKTISKAKGQPREPQVYTLPPSREEMTKNQVSLTCLVKGFYPSDIAVEWESNGQPENNYKTTPPVLDSDGSFFLYSKLTVDKSRWQQGNVFSCSVMHEALHNAYTQKSLSLSPGKGGSGGGGSGGGGSGGEVTLRESGPALVKPTQTLTLTCTFSGFSLSTYGMGVGWIRQPPGKALEWLANIWWDDDKYYNPSLKNRLTISKDTSKNQVVLTMTNMDPVDTATYYCARIESIGTTYSFDYWGQGTMVTVSSGGGGSGGGGSGGGGSEIVLTQSPGTLSLSPGERATLSCERSSGDIGDSYVSWYQQKPGQAPRLVIYADDQRPSGIPDRFSGSGSGTDFTLTISRLEPEDFAVYYCQSYDINIDIVFGGGTKVEIK light: not shown"
0.281,1.33,"4G8.4-GS10-9E8.4 (bispecific antibody, human IgG1, kappa, L234A L235A) heavy: not shown light: AIQLTQSPSSLSASVGDRVTITCRASESVSTHMHWYQQKPGKAPKLLIYGASNLESGVPSRFSGSGSGTDFTLTISSLQPEDFATYYCQQSWNDPFTFGQGTKLEIKRGGSGGGGSGEFVLTQSPGTLSLSPGERATLSCERSSGDIGDSYVSWYQQKPGQAPRLVIYADDQRPSGIPDRFSGSGSGTDFTLTISRLEPEDFAVYYCQSYDINIDIVFGGGTKVEIKRTVAAPSVFIFPPSDEQLKSGTASVVCLLNNFYPREAKVQWKVDNALQSGNSQESVTEQDSKDSTYSLSSTLTLSKADYEKHKVYACEVTHQGLSSPVTKSFNRGEC"
0.124,0.222,"AB014-GS6-9E8.4 VH-VK (bispecific antibody, human IgG1, kappa, L234A L235A) heavy: EVQLVESGGGLVQPGGSLRLSCAASGYTFTNYGMNWVRQAPGKGLEWVGWINTYTGEPTYAADFKRRFTFSLDTSKSTAYLQMNSLRAEDTAVYYCAKYPHYYGSSHWYFDVWGQGTLVTVSSASTKGPSVFPLAPSSKSTSGGTAALGCLVKDYFPEPVTVSWNSGALTSGVHTFPAVLQSSGLYSLSSVVTVPSSSLGTQTYICNVNHKPSNTKVDKKVEPKSCDKTHTCPPCPAPEAAGGPSVFLFPPKPKDTLMISRTPEVTCVVVDVSHEDPEVKFNWYVDGVEVHNAKTKPREEQYNSTYRVVSVLTVLHQDWLNGKEYKCKVSNKALPAPIEKTISKAKGQPREPQVYTLPPSREEMTKNQVSLTCLVKGFYPSDIAVEWESNGQPENNYKTTPPVLDSDGSFFLYSKLTVDKSRWQQGNVFSCSVMHEALHNAYTQKSLSLSPGKGGSGGGEVTLRESGPALVKPTQTLTLTCTFSGFSLSTYGMGVGWIRQPPGKALEWLANIWWDDDKYYNPSLKNRLTISKDTSKNQVVLTMTNMDPVDTATYYCARIESIGTTYSFDYWGQGTMVTVSSGGGGSGGGGSGGGGSEIVLTQSPGTLSLSPGERATLSCERSSGDIGDSYVSWYQQKPGQAPRLVIYADDQRPSGIPDRFSGSGSGTDFTLTISRLEPEDFAVYYCQSYDINIDIVFGGGTKVEIK light: not shown"
0.221,> 5,"4G8.2-GS10-9E8.4 (bispecific antibody, human IgG1, kappa, L234A L235A) heavy: not shown light: ATQLTQSPSLSASVGDRVTITCRASESVSTHMHWYQQKPGKQPKLLIYGASNLESGVPSRFSGSGSGTDFTLTISSLQPEDFATYFCQQSWNDPFTFGQGTKLEIKRGGSGGGGSGEFVLTQSPGTLSLSPGERATLSCERSSGDIGDSYVSWYQQKPGQAPRLVIYADDQRPSGIPDRFSGSGSGTDFTLTISRLEPEDFAVYYCQSYDINIDIVFGGGTKVEIKRTVAAPSVFIFPPSDEQLKSGTASVVCLLNNFYPREAKVQWKVDNALQSGNSQESVTEQDSKDSTYSLSSTLTLSKADYEKHKVYACEVTHQGLSSPVTKSFNRGEC"
0.079,> 5,"4G8.5-GS10-9E8.4 (bispecific antibody, human IgG1, kappa, L234A L235A) heavy: not shown light: ATQLTQSPSLSASVGDRVTITCRASESVSTHMHWYQQKPGKQPKLLIYGASNLESGVPSRFSGSGSGTDFTLTISSLQPEDFATYFCQQSWNDPFTFGQGTKLEIKRGGSGGGGSGEFVLTQSPGTLSLSPGERATLSCERSSGDIGDSYVSWYQQKPGQAPRLVIYADDQRPSGIPDRFSGSGSGTDFTLTISRLEPEDFAVYYCQSYDINIDIVFGGGTKVEIKRTVAAPSVFIFPPSDEQLKSGTASVVCLLNNFYPREAKVQWKVDNALQSGNSQESVTEQDSKDSTYSLSSTLTLSKADYEKHKVYACEVTHQGLSSPVTKSFNRGEC"
0.095,0.063,"AB014-GS10-9E8.4 VH-VK (bispecific antibody, human IgG1, kappa, L234A L235A) heavy: EVQLVESGGGLVQPGGSLRLSCAASGYTFTNYGMNWVRQAPGKGLEWVGWINTYTGEPTYAADFKRRFTFSLDTSKSTAYLQMNSLRAEDTAVYYCAKYPHYYGSSHWYFDVWGQGTLVTVSSASTKGPSVFPLAPSSKSTSGGTAALGCLVKDYFPEPVTVSWNSGALTSGVHTFPAVLQSSGLYSLSSVVTVPSSSLGTQTYICNVNHKPSNTKVDKKVEPKSCDKTHTCPPCPAPEAAGGPSVFLFPPKPKDTLMISRTPEVTCVVVDVSHEDPEVKFNWYVDGVEVHNAKTKPREEQYNSTYRVVSVLTVLHQDWLNGKEYKCKVSNKALPAPIEKTISKAKGQPREPQVYTLPPSREEMTKNQVSLTCLVKGFYPSDIAVEWESNGQPENNYKTTPPVLDSDGSFFLYSKLTVDKSRWQQGNVFSCSVMHEALHNAYTQKSLSLSPGKGGSGGGGSGGEVTLRESGPALVKPTQTLTLTCTFSGFSLSTYGMGVGWIRQPPGKALEWLANIWWDDDKYYNPSLKNRLTISKDTSKNQVVLTMTNMDPVDTATYYCARIESIGTTYSFDYWGQGTMVTVSSGGGGSGGGGSGGGGSEIVLTQSPGTLSLSPGERATLSCERSSGDIGDSYVSWYQQKPGQAPRLVIYADDQRPSGIPDRFSGSGSGTDFTLTISRLEPEDFAVYYCQSYDINIDIVFGGGTKVEIK light: not shown"

# Reference: patent US20170015742A1 (published 2017)
